B1: GRB10-interacting GYF protein 1 (Homo sapiens), O75420 (parent)
chain: MAAETLNFGPEWLRALSGGGSVASPPPSPAMPKYKLADYRYGREEMLALYVKENKVPEELQDKEFAAVLQDEPLQPLALEPLTEEEQRNFSLSVNSVAVLRLMGKGAGPPLAGTSRGRGSTRSRGRGRGDSCFYQRSIEEGDGAFGRSPREIQRSQSWDDRGERRFEKSARRDGARCGFEEGGAGPRKEHARSDSENWRSLREEQEEEEEGSWRLGAGPRRDGDRWRSASPDGGPRSAGWREHGERRRKFEFDLRGDRGGCGEEEGRGGGGSSHLRRCRAPEGFEEDKDGLPEWCLDDEDEEMGTFDASGAFLPLKKGPKEPIPEEQELDFQGLEEEEEPSEGLEEEGPEAGGKELTPLPPQEEKSSSPSPLPTLGPLWGTNGDGDETAEKEPPAAEDDIRGIQLSPGVGSSAGPPGDLEDDEGLKHLQQEAEKLVASLQDSSLEEEQFTAAMQTQGLRHSAAATALPLSHGAARKWFYKDPQGEIQGPFTTQEMAEWFQAGYFSMSLLVKRGCDEGFQPLGEVIKMWGRVPFAPGPSPPPLLGNMDQERLKKQQELAAAALYQQLQHQQFLQLVSSRQLPQCALREKAALGDLTPPPPPPPQQQQQQLTAFLQQLQALKPPRGGDQNLLPTMSRSLSVPDSGRLWDVHTSASSQSGGEASLWDIPINSSTQGPILEQLQLQHKFQERREVELRAKREEEERKRREEKRRQQQQEEQKRRQEEEELFRRKHVRQQELLLKLLQQQQAVPVPPAPSSPPPLWAGLAKQGLSMKTLLELQLEGERQLHKQPPPREPARAQAPNHRVQLGGLGTAPLNQWVSEAGPLWGGPDKSGGGSSGLGLWEDTPKSGGSLVRGLGLKNSRSSPSLSDSYSHLSGRPIRKKTEEEEKLLKLLQGIPRPQDGFTQWCEQMLHTLSATGSLDVPMAVAILKEVESPYDVHDYIRSCLGDTLEAKEFAKQFLERRAKQKASQQRQQQQEAWLSSASLQTAFQANHSTKLGPGEGSKAKRRALMLHSDPSILGYSLHGSSGEIESVDDY
partner: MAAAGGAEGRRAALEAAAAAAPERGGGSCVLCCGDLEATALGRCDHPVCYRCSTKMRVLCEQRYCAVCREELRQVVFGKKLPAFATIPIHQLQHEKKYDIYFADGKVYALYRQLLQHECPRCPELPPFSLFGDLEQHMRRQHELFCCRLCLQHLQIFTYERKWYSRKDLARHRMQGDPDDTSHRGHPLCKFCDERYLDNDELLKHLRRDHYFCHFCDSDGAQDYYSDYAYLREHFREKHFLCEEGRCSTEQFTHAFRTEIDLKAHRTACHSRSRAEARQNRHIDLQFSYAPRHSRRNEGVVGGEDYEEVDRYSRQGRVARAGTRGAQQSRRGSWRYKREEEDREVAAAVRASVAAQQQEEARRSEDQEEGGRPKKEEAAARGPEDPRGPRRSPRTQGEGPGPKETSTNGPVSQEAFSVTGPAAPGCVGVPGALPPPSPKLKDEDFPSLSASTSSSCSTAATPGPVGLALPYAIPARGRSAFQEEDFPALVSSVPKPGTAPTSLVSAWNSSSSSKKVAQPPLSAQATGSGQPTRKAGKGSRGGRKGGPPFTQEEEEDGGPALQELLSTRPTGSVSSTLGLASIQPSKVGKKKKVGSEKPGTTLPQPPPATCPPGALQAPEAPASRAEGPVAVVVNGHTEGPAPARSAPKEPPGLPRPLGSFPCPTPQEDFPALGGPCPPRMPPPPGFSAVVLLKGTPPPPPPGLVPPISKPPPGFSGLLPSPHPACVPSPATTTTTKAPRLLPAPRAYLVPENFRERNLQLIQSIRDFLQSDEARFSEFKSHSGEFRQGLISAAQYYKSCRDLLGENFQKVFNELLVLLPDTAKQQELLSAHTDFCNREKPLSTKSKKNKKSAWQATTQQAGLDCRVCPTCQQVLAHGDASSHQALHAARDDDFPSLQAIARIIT
B2: GRB10-interacting GYF protein 2 (Homo sapiens), Q6Y7W6-1 (parent)
chain: MAAETQTLNFGPEWLRALSSGGSITSPPLSPALPKYKLADYRYGREEMLALFLKDNKIPSDLLDKEFLPILQEEPLPPLALVPFTEEEQRNFSMSVNSAAVLRLTGRGGGGTVVGAPRGRSSSRGRGRGRGECGFYQRSFDEVEGVFGRGGGREMHRSQSWEERGDRRFEKPGRKDVGRPNFEEGGPTSVGRKHEFIRSESENWRIFREEQNGEDEDGGWRLAGSRRDGERWRPHSPDGPRSAGWREHMERRRRFEFDFRDRDDERGYRRVRSGSGSIDDDRDSLPEWCLEDAEEEMGTFDSSGAFLSLKKVQKEPIPEEQEMDFRPVDEGEECSDSEGSHNEEAKEPDKTNKKEGEKTDRVGVEASEETPQTSSSSARPGTPSDHQSQEASQFERKDEPKTEQTEKAEEETRMENSLPAKVPSRGDEMVADVQQPLSQIPSDTASPLLILPPPVPNPSPTLRPVETPVVGAPGMGSVSTEPDDEEGLKHLEQQAEKMVAYLQDSALDDERLASKLQEHRAKGVSIPLMHEAMQKWYYKDPQGEIQGPFNNQEMAEWFQAGYFTMSLLVKRACDESFQPLGDIMKMWGRVPFSPGPAPPPHMGELDQERLTRQQELTALYQMQHLQYQQFLIQQQYAQVLAQQQKAALSSQQQQQLALLLQQFQTLKMRISDQNIIPSVTRSVSVPDTGSIWELQPTASQPTVWEGGSVWDLPLDTTTPGPALEQLQQLEKAKAAKLEQERREAEMRAKREEEERKRQEELRRQQEEILRRQQEEERKRREEEELARRKQEEALRRQREQEIALRRQREEEERQQQEEALRRLEERRREEEERRKQEELLRKQEEEAAKWAREEEEAQRRLEENRLRMEEEAARLRHEEEERKRKELEVQRQKELMRQRQQQQEALRRLQQQQQQQQLAQMKLPSSSTWGQQSNTTACQSQATLSLAEIQKLEEERERQLREEQRRQQRELMKALQQQQQQQQQKLSGWGNVSKPSGTTKSLLEIQQEEARQMQKQQQQQQQHQQPNRARNNTHSNLHTSIGNSVWGSINTGPPNQWASDLVSSIWSNADTKNSNMGFWDDAVKEVGPRNSTNKNKNNASLSKSVGVSNRQNKKVEEEEKLLKLFQGVNKAQDGFTQWCEQMLHALNTANNLDVPTFVSFLKEVESPYEVHDYIRAYLGDTSEAKEFAKQFLERRAKQKANQQRQQQQLPQQQQQQPPQQPPQQPQQQDSVWGMNHSTLHSVFQTNQSNNQQSNFEAVQSGKKKKKQKMVRADPSLLGFSVNASSERLNMGEIETLDDY
partner: B1 partner
B3: GRB10-interacting GYF protein 2 (Homo sapiens), Q6Y7W6-1 (parent)
chain: B2 chain

Variants of: B1
Details: with zn598_human ZNF598, Q86UK7

Variant | effect of a mutation on the interaction
Y479A;F490A;W498A;F504A | disrupting interaction strength

Variants of: B2
Details: with zn598_human ZNF598, Q86UK7

Variant | effect of a mutation on the interaction
Y538A;F549A;W557A;F563A | disrupting interaction strength

Variants of: B3
Details: with EIF4E2, O60573-1
Sequence of EIF4E2, O60573-1 (O60573 whole entry): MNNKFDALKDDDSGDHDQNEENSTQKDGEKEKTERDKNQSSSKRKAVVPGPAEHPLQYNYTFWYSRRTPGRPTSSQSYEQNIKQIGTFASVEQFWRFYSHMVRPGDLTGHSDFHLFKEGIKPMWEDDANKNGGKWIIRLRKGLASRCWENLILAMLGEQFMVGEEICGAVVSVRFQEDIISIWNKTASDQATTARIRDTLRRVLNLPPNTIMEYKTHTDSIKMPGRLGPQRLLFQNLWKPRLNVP

Variant | effect of a mutation on the interaction
Y41A;Y43A;M48A;L49A | disrupting interaction strength
W288A;F300A;F306A | with no effect
Y538A;F549A;W557A;F563A | with no effect

Variants of: B3
Details: with rl22l_human RPL22L1, Q6P5R6

Variant | effect of a mutation on the interaction
Y538A;F549A;W557A;F563A | with no effect

Source: IntAct's records for PubMed 33053355
